The test concerns the target T1, human IL12RB1 Fc fusion protein (human, UniProt P42701 24-545).
T1 construct: Purchased from R & D systems; Coated on the ELISA plate; also called human IL-12RB1 receptor subunit; human IL12 receptor; not shown: Fc part of the purchased fusion protein (R & D systems)
As to the kind of experiment: ELISA, receptor-Fc coated on plate, titration of cytokine, detection with anti-human p40 monoclonal antibodies. As to the method: To test whether cynomolgus IL-23 binds to the human IL23 receptor (“IL23R”), and whether cynomolgus IL-12 binds to the human IL12 receptor (“IL12RB1”), human IL23R Fc and human IL12RB1 Fc fusion proteins were purchased (R & D systems) for an ELISA assay. To capture IL23R Fc fusion protein, 500 ng of IL23R—Fc protein in 100 μl of PBS (pH 7.4) was put onto a 96-well Maxisorb plate (NUNC, Rochester, N.Y.) and incubated overnight at 4° C. Likewise, to capture IL12RB1 Fc fusion protein, 500 ng of IL12RB1 Fe protein in 100 μl of PBS (pH 7.4) was put onto a 96-well Maxisorb plate (NUNC, Rochester, N.Y.) and incubated overnight at 4° C. For each, the capture solution was thrown away after overnight incubation and the plate was washed with 200 μl per well of TBST (25 mM Tris-HCl pH 7.5, 150 mM NaCl and 0.01% Tween 20) three times. The plate was then blocked with 200 μl per well of TBST containing 5% nonfat dry milk for 30 minutes at room temperature. After blocking, the plate was washed 3 times with 200 μl per well of TBST at room temperature and a titration of cynoIL23 or cynoIL12 in PBS was added to the plate and incubated at room temperature for 1 hour. […] A 100 μl solution containing 2 NH₂SO₄ was added to stop the reaction and the plate was read on a 96 well SpectroMax plate reader at 450 nm.
(In an ELISA, binding on a coated surface is turned into a signal by an enzyme label.)

B1: cynomolgus IL-12 (single chain: cyno p40 - 2 bovine elastin motifs - cyno p35) (ligand)
chain: IWELKKDVYVVELDWYPDAPGEMVVLTCDTPEEDGITWTLDQSGEVLGSGKTLTIQVKEFGDAGQYTCHKGGEALSHSLLLLHKKEDGIWSTDVLKDQKEPKNKTFLRCEAKNYSGRFTCWWLTTISTDLTFSVKSSRGSSNPQGVTCGAVTLSAERVRGDNKEYEYSVECQEDSACPAAEERLPIEVMVDAIHKLKYENYTSSFFIRDIIKPDPPKNLQLKPLKNSRQVEVSWEYPDTWSTPHSYFSLTFCIQVQGKSKREKKDRIFTDKTSATVICRKNASFSVQAQDRYYSSSWSEWASVPCSVPGVGVPGVGRNLSVATPGPEMFPCLHHSQNLLKAASNTLQKARQILEFYPCTSEEIDHEDITKDKTSTVEACLPLELIKNESCLNSRETSFITNGSCLASRKTSFMMALCLRSIYEDLKMYQVEFKTMNAKLLRDPKRQIFLDQNILGVIDELMQALNFNSETVPQKSSLEEPDFYKTKIKLCILLHAFRIRAVTIDRVMSYLNAS
notes: expressed in 293F cells and purified from the supernatant, about 95% pure; Any vector-derived residues at the junctions or a signal peptide are not described; also called cynoIL12; cyno IL-12
Take B1: the binding result is recorded as “binds”.

For the origin of these results see patent US20090142855A1 (published 2009).
